These results are taken from patent US12723255B2, “Herbicide tolerance genes and methods of use thereof” (priority 2014, dated 2026).

Substitutions are numbered along the chain they refer to.

Assay type in all cases: in vivo
Test [1] relates to F1 hybrid maize plants. Briefly: efficacy field trial for 2,4-D tolerance. Conditions: scale 0 to 100, with CTP unless label says no CTP; for average injury rating, V4 Growth Stage, 2x 2,4-D / average injury rating, V8 Growth Stage, 2x 2,4-D: 2 lb ae/acre at VE-V2, V4, V8; for average injury rating, V4 Growth Stage, 4x 2,4-D / average injury rating, V8 Growth Stage, 4x 2,4-D: 4 lb ae/acre at VE-V2, V4, V8; for average injury rating, V4 Growth Stage, 8x 2,4-D / average injury rating, V8 Growth Stage, 8x 2,4-D: 8 lb ae/acre at VE-V2, V4, V8; for average injury rating, V4 Growth Stage, 16x 2,4-D / average injury rating, V8 Growth Stage, 16x 2,4-D: 16 lb ae/acre at VE-V2, V4, V8. As to the method:
(§1) Separate trait efficacy field trials for quizalofop-P and 2,4-D were conducted at two locations cach with F1 hybrid transgenic plants produced by crossing an inbred plant containing maize event MON89034 with an R1 plant containing MON-HT55 (with a CTP), MON-HTI (with or without a CTP), MON-HT2 (with or without a CTP), MON-HT3 (with a CTP), MON-HT4 (with a CTP), MON-HT5 (with a CTP), MON-HT6 (with a CTP), or MON-HT7 (with a CTP). Transgenic F1 hybrid plants containing maize events NK603×MON89034 were used for comparison as a control.
In the efficacy field trial for 2,4-D tolerance, one of four herbicide treatments was used: (1) 2,4-D amine at 2 lb ac/acre (2×) plus 0.25% v/v non-ionic surfactant (NIS) applied to VE to V2 followed by V4 followed by V8; (2) 2,4-D amine at 4 lb ac/acre (4×) plus 0.25% v/v NIS applied to VE to V2 followed by V4 followed by V8; (3) 2,4-D amine at 8 lb ac/acre (8×) plus 0.25% v/v NIS applied to VE to V2 followed by V4 followed by V8 maize; or (4) 2,4-D amine at 16 lb ac/acre (16×) plus 0.25% v/v NIS applied to VE to V2 followed by V4 followed by V8. Plots were visually rated as above. Tables 14 and 15 show the average injury ratings after herbicide application at V4 or V8 growth stage, respectively.

In test [2] the test system is F1 hybrid maize plants. Put plainly: efficacy field trial for quizalofop-P tolerance and clethodim sensitivity. Conditions: scale 0 to 100; for average injury rating, V4 Growth Stage, 4x Quizalofop / average injury rating, V8 Growth Stage, 4x Quizalofop: 0.32 lb ai/acre at VE-V2, V4, V8; for average injury rating, V4 Growth Stage, 4x Quizalofop / average injury rating, V8 Growth Stage, 4x Quizalofop / average injury rating, V4 Growth Stage, 8x Quizalofop / average injury rating, V8 Growth Stage, 8x Quizalofop / average injury rating, V4 Growth Stage, 16x Quizalofop / average injury rating, V8 Growth Stage, 16x Quizalofop: with CTP unless label says no CTP; for average injury rating, V4 Growth Stage, 8x Quizalofop / average injury rating, V8 Growth Stage, 8x Quizalofop: 0.64 lb ai/acre at VE-V2, V4, V8; for average injury rating, V4 Growth Stage, 16x Quizalofop / average injury rating, V8 Growth Stage, 16x Quizalofop: 1.28 lb ai/acre at VE-V2, V4, V8; for average injury rating, V8 Growth Stage, 1x Clethodim: clethodim 0.25 lb ai/acre at V8, volunteer control. As to the method:
as §1
In the efficacy field trial for quizalofop-P tolerance and clethodim sensitivity, one of four herbicide treatments was used: (1) quizalofop-P (Assure II) at 0.32 lb ai/acre (4×) plus 0.25% v/v non-ionic surfactant (NIS) applied at VE-V2 growth stage followed by the same at V4 growth stage followed by the same at V8 growth stage; (2) quizalofop-P at 0.64 lb ai/acre (8×) plus 0.25% v/v NIS applied at VE to V2 growth stage followed by the same at V4 growth stage followed by the same at V8 growth stage; (3) quizalofop-P at 1.28 lb ai/acre (16×) plus 0.25% v/v NIS applied at VE to V2 growth stage followed by the same at V4 growth stage followed by the same at V8growth stage; or (4) clethodim at 0.25 lb ai/acre (1×) plus 0.25% v/v NIS applied at V8 growth stage. Plots were visually rated 10-14 days after application for crop injury on a scale of 0 to 100with “0” being none and “100” being complete crop destruction. Tables 14 and 15 show the average injury ratings after herbicide application at V4 or V8 growth stage, respectively.

The test system of test [3] is F1 hybrid maize plants. Put plainly: trait efficacy field trial, quizalofop-P pressure screening, F1 hybrid. The note with it: CTP A, crop injury percentage; for 4X Qizalofop-P CIPV4 / 4X Qizalofop-P CIPV8: 0.32 lb ai/acre at VE-V2, V4, V8; for 8X Qizalofop-P CIPV4 / 8X Qizalofop-P CIPV8: 0.64 lb ai/acre at VE-V2, V4, V8; for 16X Qizalofop-P CIPV4 / 16X Qizalofop-P CIPV8: 1.28 lb ai/acre at VE-V2, V4, V8. As to the method: Separate trait efficacy field trials for quizalofop-P and 2,4-D pressure screening were conducted at one location each with F1 hybrid transgenic plants produced by crossing an inbred plant containing maize event MON89034 with an R1 plant containing MON-HT1, MON-HT2, MON-HT8, MON-HT9, and MON-HT10 with and without operably linked CTP sequences. Transgenic F1 hybrid plants containing maize events NK603×MON89034 were used for comparison as a control.
In the trait efficacy field trial for quizalofop-P tolerance, one of three herbicide treatments was used: (1) quizalofop-P (Assure II) at 0.32 lb ai/acre (4×) plus 0.25% v/v non-ionic surfactant (NIS) applied at VE-V2 growth stage followed by the same at V4 growth stage followed by the same at V8 growth stage; (2) quizalofop-P at 0.64 lb ai/acre (8×) plus 0.25% v/v NIS applied at VE-V2 growth stage followed by the same at V4 growth stage followed by the same at V8 growth stage; or (3) quizalofop-P at 1.28 lb ai/acre (16×) plus 0.25% v/v NIS applied at VE-V2 growth stage followed by the same at V4 growth stage followed by the same at V8 growth stage. Plots were visually rated as above. […] The injury rating for the control plants after all quizalofop-P application was 100%. Error was calculated using LSD (0.05).

B1: MON-HT3: engineered oxygenase protein, amino acid sequence SEQ ID NO:22 (protein)
chain: MHAALSPLSQRFERIAVQPLTGVLGAEITGVDLREPLDDSTWNEILDAFHTYQVIYFPGQAITNEQHIAFSRRFGPVDPVPLLKSIEGYPEVQMIRREANESGRVIGDDWHTDSTFLDAPPAAVVMYAKEVPPYGGDTLFASMYTAWETLSPTMQATIEGLNVVHSATRVFGSLYQAQNRRFSNTSVKVMDVDAGDRETVHPLVVTHPETGRKGLYVNQVYCQRIEGMSEKESEPLLSFLFAHATKPEFTCRVRWQEGQVLVWDNLCTQHFAVPDYAGKFRYLTRTTVGGVRPAR
Take B1: in the test with F1 hybrid maize plants [1], the “average injury rating, V4 Growth Stage, 2x 2,4-D” value worked out at 3.8; the “average injury rating, V8 Growth Stage, 2x 2,4-D” value amounted to 5.5; the “average injury rating, V4 Growth Stage, 4x 2,4-D” value was found to be 6.3; the “average injury rating, V8 Growth Stage, 4x 2,4-D” value was 5.5. Besides, in the test on F1 hybrid maize plants [1], the “average injury rating, V4 Growth Stage, 8x 2,4-D” value came out at 8.8; the “average injury rating, V8 Growth Stage, 8x 2,4-D” value worked out at 11.3; the “average injury rating, V4 Growth Stage, 16x 2,4-D” value is on record as 11.3; the “average injury rating, V8 Growth Stage, 16x 2,4-D” value was 13.8. For the same molecule, in the test on F1 hybrid maize plants [2], the “average injury rating, V4 Growth Stage, 4x Quizalofop” value amounted to 0.8; the “average injury rating, V8 Growth Stage, 4x Quizalofop” value is listed as 2.5; the “average injury rating, V4 Growth Stage, 8x Quizalofop” value is reported as 0.0; the “average injury rating, V8 Growth Stage, 8x Quizalofop” value was found to be 2.0. For the same molecule, in the test with F1 hybrid maize plants [2], the “average injury rating, V4 Growth Stage, 16x Quizalofop” value was 4.3; the “average injury rating, V8 Growth Stage, 16x Quizalofop” value is given as 6.0; the “average injury rating, V8 Growth Stage, 1x Clethodim” value (“average injury rating … 1x Clethodim” for short) is recorded as 94.5.

B2: MON-HT4: engineered oxygenase protein, amino acid sequence SEQ ID NO:25 (protein)
chain: MHAALTPLTNKYRFIDVQPLTGVLGAEITGVDLREPLDDSTWNEILDAFHTYQVIYFPGQAITNEQHIAFSRRFGPVDPVPLLKSIEGYPEVQMIRREANESGRVIGDDWHTDSTFLDAPPAAVVMYAREVPPYGGDTGFLSMYTAWETLSPTMQATIEGLNVVHSATRVFGSLYQAQNRRYSNTSVKVMDVDAGDRETVHPLVVSHPVTGRRALYCNQVYCQRIEGMTDAESKSLLQFLYEHATKFDFTCRVRWKKDQVLVWDNLCTMHRAVPDYAGKFRYLTRTTVAGDKPSR
With B2, in the test with F1 hybrid maize plants [1], the “average injury rating, V4 Growth Stage, 2x 2,4-D” value is given as 0.0; the “average injury rating, V8 Growth Stage, 2x 2,4-D” value is given as 2.0; the “average injury rating, V4 Growth Stage, 4x 2,4-D” value is on record as 1.3; the “average injury rating, V8 Growth Stage, 4x 2,4-D” value was found to be 8.8. Also, in the test with F1 hybrid maize plants [1], the “average injury rating, V4 Growth Stage, 8x 2,4-D” value is 8.8; the “average injury rating, V8 Growth Stage, 8x 2,4-D” value came out at 12.5; the “average injury rating, V4 Growth Stage, 16x 2,4-D” value was 18.8; the “average injury rating, V8 Growth Stage, 16x 2,4-D” value worked out at 21.3. For the same molecule, in the test on F1 hybrid maize plants [2], the “average injury rating, V4 Growth Stage, 4x Quizalofop” value is given as 2.8; the “average injury rating, V8 Growth Stage, 4x Quizalofop” value was 3.3; the “average injury rating, V4 Growth Stage, 8x Quizalofop” value amounted to 3.3; the “average injury rating, V8 Growth Stage, 8x Quizalofop” value is listed as 3.3. Further, in the test with F1 hybrid maize plants [2], the “average injury rating, V4 Growth Stage, 16x Quizalofop” value is listed as 13.8; the “average injury rating, V8 Growth Stage, 16x Quizalofop” value amounted to 8.0; the “average injury rating … 1x Clethodim” value was found to be 94.5.

B3: MON-HT5: engineered oxygenase protein, amino acid sequence SEQ ID NO:28 (protein)
chain: MHAALTPLTNKYRFIDVQPLTGVLGAEITGVDLREPLDDSTWNEILDAFHTYQVIYFPGQAITNEQHIAFSRRFGPVDPVPLLKSIEGYPEVQMIRREANESGRVIGDDWHTDSTFLDAPPAAVVMRAIEVPEYGGDTGFLSMYSAWETLSPTMQATIEGLNVVHSATKVFGSLYQATNWRFSNTSVKVMDVDAGDRETVHPLVVTHPVTGRRALYCNQVYCQKIQGMTDAESKSLLQFLYEHATKFDFTCRVRWKKDQVLVWDNLCTMHRAVPDYAGKFRYLTRTTVAGDKPSR
Turning to B3, in the test on F1 hybrid maize plants [1], the “average injury rating, V4 Growth Stage, 2x 2,4-D” value was 2.5; the “average injury rating, V8 Growth Stage, 2x 2,4-D” value was 3.3; the “average injury rating, V4 Growth Stage, 4x 2,4-D” value is 2.5; the “average injury rating, V8 Growth Stage, 4x 2,4-D” value is 4.0. Moreover, in the test on F1 hybrid maize plants [1], the “average injury rating, V4 Growth Stage, 8x 2,4-D” value turned out to be 7.5; the “average injury rating, V8 Growth Stage, 8x 2,4-D” value came out at 10.0; the “average injury rating, V4 Growth Stage, 16x 2,4-D” value was 17.5; the “average injury rating, V8 Growth Stage, 16x 2,4-D” value turned out to be 21.3. Further, in the test with F1 hybrid maize plants [2], the “average injury rating, V4 Growth Stage, 4x Quizalofop” value came out at 1.3; the “average injury rating, V8 Growth Stage, 4x Quizalofop” value was found to be 2.5; the “average injury rating, V4 Growth Stage, 8x Quizalofop” value stood at 4.5; the “average injury rating, V8 Growth Stage, 8x Quizalofop” value amounted to 0.0. Besides, in the test on F1 hybrid maize plants [2], the “average injury rating, V4 Growth Stage, 16x Quizalofop” value amounted to 4.5; the “average injury rating, V8 Growth Stage, 16x Quizalofop” value stood at 8.0; the “average injury rating … 1x Clethodim” value was 92.0.

B4: MON-HT9: engineered oxygenase protein, amino acid sequence SEQ ID NO:40 (protein)
chain: MHAALTPLTNKYRFIDVQPLTGVLGAEITGVDLREPLDDSTWNEILDAFHTYQVIYFPAQQITNEQHISFSRRFGPVDPVPLLKSIEGYPEVQMIRREANESGRILGDDWHTDSTFLDAPPAAVVMRAIEVPEYGGDTGFLSMYSAWDTLSDTMKATIEGLNVVHSATRVFGSLYQAQNWRFSNTSVKVMDVDAGDRETVHPLVVSHPVTGRRALYCNQVYCQRIEGMTDAESKCLLQFLYEHATKFDFTCRVRWKKDQVLVWDNLCTMHRAVPDYAGKFRYLTRTTVAGDRPAR
As for B4, in the test on F1 hybrid maize plants [3], the “4X Qizalofop-P CIPV4” value is 0, the “4X Qizalofop-P CIPV8” value is 5, the “8X Qizalofop-P CIPV4” value turned out to be 2.5 and the “8X Qizalofop-P CIPV8” value is 15. In the test with F1 hybrid maize plants [3], the “16X Qizalofop-P CIPV4” value turned out to be 7.5 and the “16X Qizalofop-P CIPV8” value turned out to be 20.

B5: MON-HT10: engineered oxygenase protein, amino acid sequence SEQ ID NO:43 (protein)
chain: B4 chain with T21C, A59G, Q61A, S69A, R271L, A277D, R292K, A294S
For B5, in the test with F1 hybrid maize plants [3], the “4X Qizalofop-P CIPV4” value was 0, the “4X Qizalofop-P CIPV8” value is on record as 5, the “8X Qizalofop-P CIPV4” value was 2.5 and the “8X Qizalofop-P CIPV8” value came out at 10. Also, in the test on F1 hybrid maize plants [3], the “16X Qizalofop-P CIPV4” value was 5 and the “16X Qizalofop-P CIPV8” value stood at 21.
